Assay results taken from patent EP2843044A1, “Improved variant of D-psicose 3-epimerase and uses thereof” (Roquette Frères, priority 2013, dated 2015).

B1: D-psicose 3-epimerase (DPEase) from Clostridium cellulolyticum, variant G211S, SEQ ID No 4 (Ruminiclostridium cellulolyticum H10; G211S) (protein)
chain: MKHGIYYAYWEQEWEADYKYYIEKVAKLGFDILEIAASPLPFYSDIQINELKACAHGNGITLTVGHGPSAEQNLSSPDPDIRKNAKAFYTDLLKRLYKLDVHLIGGALYSYWPIDYTKTIDKKGDWERSVESVREVAKVAEACGVDFCLEVLNRFENYLINTAQEGVDFVKQVDHNNVKVMLDTFHMNIEEDSIGGAIRTAGSYLGHLHTSECNRKVPGRGRIPWVEIGEALADIGYNGSVVMEPFVRMGGTVGSNIKVWRDISNGADEKMLDREAQAALDFSRYVLECHKHS
notes: made in house; host or cells: Bacillus subtilis WB600 (pMA5)
B2: D-psicose 3-epimerase (DPEase) from Clostridium cellulolyticum, variant G211A (Ruminiclostridium cellulolyticum H10; G211A) (protein)
chain: MKHGIYYAYWEQEWEADYKYYIEKVAKLGFDILEIAASPLPFYSDIQINELKACAHGNGITLTVGHGPSAEQNLSSPDPDIRKNAKAFYTDLLKRLYKLDVHLIGGALYSYWPIDYTKTIDKKGDWERSVESVREVAKVAEACGVDFCLEVLNRFENYLINTAQEGVDFVKQVDHNNVKVMLDTFHMNIEEDSIGGAIRTAGSYLGHLHTAECNRKVPGRGRIPWVEIGEALADIGYNGSVVMEPFVRMGGTVGSNIKVWRDISNGADEKMLDREAQAALDFSRYVLECHKHS
notes: as for B1
B3: D-psicose 3-epimerase (DPEase) from Clostridium cellulolyticum, variant G211L (Ruminiclostridium cellulolyticum H10; G211L) (protein)
chain: MKHGIYYAYWEQEWEADYKYYIEKVAKLGFDILEIAASPLPFYSDIQINELKACAHGNGITLTVGHGPSAEQNLSSPDPDIRKNAKAFYTDLLKRLYKLDVHLIGGALYSYWPIDYTKTIDKKGDWERSVESVREVAKVAEACGVDFCLEVLNRFENYLINTAQEGVDFVKQVDHNNVKVMLDTFHMNIEEDSIGGAIRTAGSYLGHLHTLECNRKVPGRGRIPWVEIGEALADIGYNGSVVMEPFVRMGGTVGSNIKVWRDISNGADEKMLDREAQAALDFSRYVLECHKHS
notes: as for B1
B4: D-psicose 3-epimerase (DPEase) from Clostridium cellulolyticum, variant G211W (Ruminiclostridium cellulolyticum H10; G211W) (protein)
chain: MKHGIYYAYWEQEWEADYKYYIEKVAKLGFDILEIAASPLPFYSDIQINELKACAHGNGITLTVGHGPSAEQNLSSPDPDIRKNAKAFYTDLLKRLYKLDVHLIGGALYSYWPIDYTKTIDKKGDWERSVESVREVAKVAEACGVDFCLEVLNRFENYLINTAQEGVDFVKQVDHNNVKVMLDTFHMNIEEDSIGGAIRTAGSYLGHLHTWECNRKVPGRGRIPWVEIGEALADIGYNGSVVMEPFVRMGGTVGSNIKVWRDISNGADEKMLDREAQAALDFSRYVLECHKHS
notes: as for B1
B5: D-psicose 3-epimerase (DPEase) from Clostridium cellulolyticum, variant G211D (Ruminiclostridium cellulolyticum H10; G211D) (protein)
chain: MKHGIYYAYWEQEWEADYKYYIEKVAKLGFDILEIAASPLPFYSDIQINELKACAHGNGITLTVGHGPSAEQNLSSPDPDIRKNAKAFYTDLLKRLYKLDVHLIGGALYSYWPIDYTKTIDKKGDWERSVESVREVAKVAEACGVDFCLEVLNRFENYLINTAQEGVDFVKQVDHNNVKVMLDTFHMNIEEDSIGGAIRTAGSYLGHLHTDECNRKVPGRGRIPWVEIGEALADIGYNGSVVMEPFVRMGGTVGSNIKVWRDISNGADEKMLDREAQAALDFSRYVLECHKHS
notes: as for B1
B6: D-psicose 3-epimerase (DPEase) from Clostridium cellulolyticum, wild type, SEQ ID No 2 (Ruminiclostridium cellulolyticum H10) (protein)
chain: MKHGIYYAYWEQEWEADYKYYIEKVAKLGFDILEIAASPLPFYSDIQINELKACAHGNGITLTVGHGPSAEQNLSSPDPDIRKNAKAFYTDLLKRLYKLDVHLIGGALYSYWPIDYTKTIDKKGDWERSVESVREVAKVAEACGVDFCLEVLNRFENYLINTAQEGVDFVKQVDHNNVKVMLDTFHMNIEEDSIGGAIRTAGSYLGHLHTGECNRKVPGRGRIPWVEIGEALADIGYNGSVVMEPFVRMGGTVGSNIKVWRDISNGADEKMLDREAQAALDFSRYVLECHKHS
notes: as for B1
B7: D-psicose 3-epimerase (DPEase) from Clostridium cellulolyticum, variant G211R (Ruminiclostridium cellulolyticum H10; G211R) (protein)
chain: MKHGIYYAYWEQEWEADYKYYIEKVAKLGFDILEIAASPLPFYSDIQINELKACAHGNGITLTVGHGPSAEQNLSSPDPDIRKNAKAFYTDLLKRLYKLDVHLIGGALYSYWPIDYTKTIDKKGDWERSVESVREVAKVAEACGVDFCLEVLNRFENYLINTAQEGVDFVKQVDHNNVKVMLDTFHMNIEEDSIGGAIRTAGSYLGHLHTRECNRKVPGRGRIPWVEIGEALADIGYNGSVVMEPFVRMGGTVGSNIKVWRDISNGADEKMLDREAQAALDFSRYVLECHKHS
notes: made in house

Substrate: O=C(CO)[C@@H](O)[C@H](O)[C@H](O)CO
Assay: Determination of kinetic parameters of DPEase (HPLC assay of D-psicose formed)
Type: biochemical, Clostridium cellulolyticum
Settings: other: 50 mM Tris-HCl buffer (pH 8.0), 0.1mM Co^2+, 5-200mM substrate, 55 °C
Protocol: Kinetic parameters of DPEase variants were determined in 50 mM Tris-HCl buffer (pH 8.0) containing 0.1mM Co^2+ and 5-200mM substrate for reaction at 55 °C. The enzyme reactions were stopped after 10 min by boiling, and the amount of D-psicose was determined by the HPLC assay. Kinetic parameters, such as the Michaelis-Menten constant (Km) and turnover number (kcat) values for substrates, were obtained using the Lineweaver-Burk equation and quantification of enzyme concentration.
The concentrations of D-fructose and D-psicose were analyzed by HPLC equipped with a refractive index detector and a Ca^2+-carbohydrate column (Waters Sugar-Pak 1, Waters Corp., Milford, MA), which was eluted with water at 85 °C and 0.4 mL/min. Protein concentration was determined according to the method of Bradford using bovine serum albumin as a standard. SDS-PAGE was carried out according to the method of Laemmli. Gels (12% w/v polyacrylamide) were stained with Coomassie Brilliant Blue and destained with an aqueous mixture of 10% (v/v) methanol/10% (v/v) acetic acid. Table 1: Enzyme properties and kinetic parameters of the wild-type and mutant enzymes of DPEase from C. cellulolyticum for substrate D-psicose

| Protein | kcat/Km [mM^-1 min ^-1] |
| --- | --- |
| B1 | 150.6 |
| B2 | 9.8 |
| B3 | 73.2 |
| B4 | 68.1 |
| B5 | 86.7 |
| B6 | 62.7 |
| B7 | 26.5 |
